Results on two substances are retold here after IntAct's records for PubMed 25225338.

The target in the assay is mare1_human MAPRE1 (UniProt Q15691).
Chain of mare1_human MAPRE1 (Q15691 whole entry): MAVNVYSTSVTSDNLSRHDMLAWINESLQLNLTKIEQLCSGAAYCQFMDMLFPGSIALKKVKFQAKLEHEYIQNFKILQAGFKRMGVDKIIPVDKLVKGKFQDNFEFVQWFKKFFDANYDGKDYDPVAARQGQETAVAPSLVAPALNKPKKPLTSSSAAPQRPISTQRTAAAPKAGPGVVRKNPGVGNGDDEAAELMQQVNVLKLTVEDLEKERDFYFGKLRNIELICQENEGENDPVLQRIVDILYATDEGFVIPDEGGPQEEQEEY

For the substance “Desmoplakin (Homo sapiens), P15924-2 I533T”, the “effect of a mutation on the interaction” value is “decreasing interaction strength”.

For the substance “Desmoplakin (Homo sapiens), P15924-2 N458Y”, the “effect of a mutation on the interaction” value is given as “decreasing interaction strength”.
